# B1: immunosuppressive molecule of plasmid CAR19-C4TT (anti-CTLA4 scFv, linker, anti-TIGIT scFv, IgG4 hinge, CD28 transmembrane region, CD28 co-stimulatory domain), … (other)
# chain: QVQLVESGGGVVQPGRSLRLSCAASGFTFSSYGMHWVRQAPGKGLEWVAVIWYDGSNKYYADSVKGRFTISRDNSKNTLYLQMNSLRAEDTAVFYCARAPNYIGAFDVWGQGTMVTVSSGGGGSGGGGSGGGGSDIQMTQSPSSLSASVGDRVTITCRASQGISSWLAWYQQKPEKAPKSLIYAASSLQSGVPSRFSGSGSGTDFTLTISSLQPEDFATYYCQQYNSYPPTFGQGTKVEIKGGGGSGGGGSGGGGSEVQLQQSGPGLVKPSQTLSLTCAISGDSVSSNSAAWNWIRQSPSRGLEWLGKTYYRFKWYSDYAVSVKGRITINPDTSKNQFSLQLNSVTPEDTAVFYCTRESTTYDLLAGPFDYWGQGTLVTVSSGGGGSGGGGSGGGGSDIVMTQSPDSLAVSLGERATINCKSSQTVLYSSNNKKYLAWYQQKPGQPPNLLIYWASTRESGVPDRFSGSGSGTDFTLTISSLQAEDVAVYYCQQYYSTPFTFGPGTKVEIKRESKYGPPCPPCPFWVLVVVGGVLACYSLLVTVAFIIFWVRSKRSRLLHSDYMNMTPRRPGPTRKHYQPYAPPRDFAAYRS
# notes: Membrane-anchored on transduced T cells that also express the anti-CD19 CAR
# B2: immunosuppressive molecule of plasmid CAR18.2-PA (anti-PD1 scFv, linker, anti-NKG2A scFv, IgG4 hinge, CD28 transmembrane region, CD28 co-stimulatory domain), … (other)
# chain: QVQLVQSGVEVKKPGASVKVSCKASGYTFTNYYMYWVRQAPGQGLEWMGGINPSNGGTNFNEKFKNRVTLTTDSSTTTAYMELKSLQFDDTAVYYCARRDYRFDMGFDYWGQGTTVTVSSGGGGSGGGGSGGGGSEIVLTQSPATLSLSPGERATLSCRASKGVSTSGYSYLHWYQQKPGQAPRLLIYLASYLESGVPARFSGSGSGTDFTLTISSLEPEDFAVYYCQHSRDLPLTFGGGTKVEIKGGGGSGGGGSGGGGSEIVLTQSPATLSLSPGERATMTCSASSSVSSYIYWYQQKPGQAPRLLIYLTSNLASGIPARFSGSGSGTDFTLTISSLEPEDFATYYCQQWSGNPYTFGQGTKVEIKGSTSGSGKPGSGEGSTKGEVQLVESGGGLVKPGGSLRLSCAASGFTFSSYAMSWVRQAPGKGLEWVAEISSGGSYTYYPDSVKGRFTISRDNAKNSLYLQMNSLRAEDTAVYYCTRHGDYPRFFDVWGQGTLVTVSSESKYGPPCPPCPFWVLVVVGGVLACYSLLVTVAFIIFWVRSKRSRLLHSDYMNMTPRRPGPTRKHYQPYAPPRDFAAYRS
# B3: immunosuppressive molecule of plasmid CAR19-AC4 (anti-NKG2A scFv, linker, anti-CTLA4 scFv, IgG4 hinge, CD28 transmembrane region, CD28 co-stimulatory domain), … (other)
# chain: EIVLTQSPATLSLSPGERATMTCSASSSVSSYIYWYQQKPGQAPRLLIYLTSNLASGIPARFSGSGSGTDFTLTISSLEPEDFATYYCQQWSGNPYTFGQGTKVEIKGSTSGSGKPGSGEGSTKGEVQLVESGGGLVKPGGSLRLSCAASGFTFSSYAMSWVRQAPGKGLEWVAEISSGGSYTYYPDSVKGRFTISRDNAKNSLYLQMNSLRAEDTAVYYCTRHGDYPRFFDVWGQGTLVTVSSGGGGSGGGGSGGGGSQVQLVESGGGVVQPGRSLRLSCAASGFTFSSYGMHWVRQAPGKGLEWVAVIWYDGSNKYYADSVKGRFTISRDNSKNTLYLQMNSLRAEDTAVFYCARAPNYIGAFDVWGQGTMVTVSSGGGGSGGGGSGGGGSDIQMTQSPSSLSASVGDRVTITCRASQGISSWLAWYQQKPEKAPKSLIYAASSLQSGVPSRFSGSGSGTDFTLTISSLQPEDFATYYCQQYNSYPPTFGQGTKVEIKESKYGPPCPPCPFWVLVVVGGVLACYSLLVTVAFIIFWVRSKRSRLLHSDYMNMTPRRPGPTRKHYQPYAPPRDFAAYRS
# notes: as for B1
# Assays:
# Experiment in all cases: flow cytometry, soluble tagged antigen staining T cells that carry the construct
# [1] = target: T1, Human TIGIT Protein, Fc Tag (ACRO) (human, UniProt Q495A1 22-141)
# T1 construct: Bought reagent (ACRO); no catalogue number, no construct limits; also called Human TIGIT Protein, Fc TagTIGIT; not shown: Fc tag
# T1 sequence (looked up): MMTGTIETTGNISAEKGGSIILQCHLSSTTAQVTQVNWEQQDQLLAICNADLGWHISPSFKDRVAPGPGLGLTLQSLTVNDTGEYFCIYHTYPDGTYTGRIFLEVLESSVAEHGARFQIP
# [2] = target: T2, Human CTLA-4 / CD152 Protein, Fc Tag (ACRO) (human, UniProt P16410 36-161, limits assumed)
# T2 construct: Bought reagent (ACRO); no catalogue number, no construct limits; not shown: Fc tag
# T2 sequence (looked up): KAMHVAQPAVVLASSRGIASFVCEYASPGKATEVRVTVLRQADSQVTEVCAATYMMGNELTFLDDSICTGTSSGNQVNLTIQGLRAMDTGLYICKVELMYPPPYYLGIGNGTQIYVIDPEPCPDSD
# [3] = target: T3, Human PD-1 / PDCD1 Protein, His Tag (ACRO) (human, UniProt Q15116 25-167)
# T3 construct: Bought reagent (ACRO); no catalogue number, no construct limits; also called CD279; not shown: His tag
# T3 sequence (Q15116 25-167 limits assumed): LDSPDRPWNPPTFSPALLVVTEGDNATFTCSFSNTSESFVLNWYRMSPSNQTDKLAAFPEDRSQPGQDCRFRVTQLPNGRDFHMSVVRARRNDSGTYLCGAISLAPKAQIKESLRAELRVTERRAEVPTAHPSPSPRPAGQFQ
# [4] = target: T4, Human NKG2A&CD94 Protein, Fc Tag (ACRO) (human, UniProt P26715 94-233; Q13241 32-179, limits assumed)
# T4 construct: Bought heterodimer reagent (ACRO) with Fc tag
# T4 sequence (P26715 94-233 limits assumed, chain 1 of 2): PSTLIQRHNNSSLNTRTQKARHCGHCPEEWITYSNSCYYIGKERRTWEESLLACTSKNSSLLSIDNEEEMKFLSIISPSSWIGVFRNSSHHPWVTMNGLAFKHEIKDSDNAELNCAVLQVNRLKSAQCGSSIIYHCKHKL
# T4 sequence (Q13241 32-179 limits assumed, chain 2 of 2): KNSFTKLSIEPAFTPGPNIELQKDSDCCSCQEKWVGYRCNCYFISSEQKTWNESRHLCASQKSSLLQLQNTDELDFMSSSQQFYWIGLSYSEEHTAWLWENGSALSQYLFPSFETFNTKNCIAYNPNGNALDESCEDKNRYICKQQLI
binding result [1],binding result [2],binding result [3],binding result [4],Binder
binds,binds,,,B1
,,binds,binds,B2
,binds,,binds,B3

# — patent EP4663762A2 (HongKong Bioheng Biotech Limited, dated 2025)
